According to publication PMC3360202:

Legend:
P1MYB (N6His-ZmP1MYB) [1] = target: T1, P1MYB (N6His-ZmP1MYB) (Zea mays, UniProt P27898 9-116); assay: EMSA
P1MYB (N6His-ZmP1MYB) [2] = target: T1, P1MYB (N6His-ZmP1MYB); assay: EMSA; remark: listed apart in the source
P1MYB (N6His-ZmP1MYB) [3] = target: T1, P1MYB (N6His-ZmP1MYB); assay: competition

T1 sequence (P27898 9-116): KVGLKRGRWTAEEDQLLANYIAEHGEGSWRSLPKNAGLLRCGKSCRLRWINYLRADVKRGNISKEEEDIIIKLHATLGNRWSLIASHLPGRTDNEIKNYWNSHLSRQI

B1: APB1 (dsDNA)
DNA 1: GATCCGGGTCAGTGTACCTACCAACCTTAAACAC
DNA 2: GATCGTGTTTAAGGTTGGTAGGTACACTGACCCG
- binding result (P1MYB (N6His-ZmP1MYB) [1]): binds

B2: FLSbind (dsDNA)
DNA 1: GAGTTTCTGGTAGGTGCGTCGTACGGCCAG
DNA 2: CTGGCCGTACGACGCACCTACCAGAAACTC
- binding result (P1MYB (N6His-ZmP1MYB) [2]): binds

B3: comp1 (dsDNA)
DNA 1: CTATTACTCGTTAGTTGGATTTTAGTTT
DNA 2: AAACTAAAATCCAACTAACGAGTAATAG
- binding result (P1MYB (N6His-ZmP1MYB) [3]): binds

B4: comp2 (dsDNA)
DNA 1: CCAAGTCAAAATCCAACCATTATCTCTTGA
DNA 2: TCAAGAGATAATGGTTGGATTTTGACTTGG
- binding result (P1MYB (N6His-ZmP1MYB) [3]): binds

B5: comp3 (dsDNA)
DNA 1: TAGATGTGATTCGTTAGGTGTGTTTTTATAA
DNA 2: TTATAAAAACACACCTAACGAATCACATCTA
- binding result (P1MYB (N6His-ZmP1MYB) [3]): binds
